Measured values published in paper PMC7020083.

Target: hTNFR2-SCP3-Fc (human | ectromelia virus) (UniProt P20333)
Assay: SPR; […], single-cycle; 1:1 Langmuir fit

Sequence of UniProt P20333 (P20333 23-257 limits assumed): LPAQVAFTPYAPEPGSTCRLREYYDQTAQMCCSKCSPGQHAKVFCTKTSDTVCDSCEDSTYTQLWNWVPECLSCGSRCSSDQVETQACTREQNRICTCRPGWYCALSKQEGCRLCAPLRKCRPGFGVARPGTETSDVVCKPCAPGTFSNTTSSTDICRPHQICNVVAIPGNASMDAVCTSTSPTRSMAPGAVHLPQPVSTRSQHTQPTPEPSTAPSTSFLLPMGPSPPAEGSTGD

human CCL25 (from UniProt O15444 24-150) (ligand)
Kd: 6.75 nM | koff: 0.00374 s⁻¹ | kon: 554000 M⁻¹ s⁻¹

human CXCL12 (from UniProt P48061 22-93) (ligand)
Kd: 49.8 nM | koff: 0.00825 s⁻¹ | kon: 166000 M⁻¹ s⁻¹

B1: human CXCL13 (ligand)
chain: VLEVYYTSLRCRCVQESSVFIPRRFIDRIQILPRGNGCPRKEIIVWKKNKSIVCVDPQAEWIQRMMEVLRKRSSSTLPVPVFKRKIP
Kd: 21.4 nM | koff: 0.00155 s⁻¹ | kon: 72000 M⁻¹ s⁻¹
